The values below are quoted from earlier work in publication PMC5408189.

For the data set, the target named is integrin α5β1 (Homo sapiens) (UniProt P08648). As to the kind of experiment: surface plasmon resonance. A general note: In SPR one partner is held on a chip, and binding of the other changes the refractive index at the surface.
Chain of UniProt P08648 (P08648 42-1049, chain 1 of 2): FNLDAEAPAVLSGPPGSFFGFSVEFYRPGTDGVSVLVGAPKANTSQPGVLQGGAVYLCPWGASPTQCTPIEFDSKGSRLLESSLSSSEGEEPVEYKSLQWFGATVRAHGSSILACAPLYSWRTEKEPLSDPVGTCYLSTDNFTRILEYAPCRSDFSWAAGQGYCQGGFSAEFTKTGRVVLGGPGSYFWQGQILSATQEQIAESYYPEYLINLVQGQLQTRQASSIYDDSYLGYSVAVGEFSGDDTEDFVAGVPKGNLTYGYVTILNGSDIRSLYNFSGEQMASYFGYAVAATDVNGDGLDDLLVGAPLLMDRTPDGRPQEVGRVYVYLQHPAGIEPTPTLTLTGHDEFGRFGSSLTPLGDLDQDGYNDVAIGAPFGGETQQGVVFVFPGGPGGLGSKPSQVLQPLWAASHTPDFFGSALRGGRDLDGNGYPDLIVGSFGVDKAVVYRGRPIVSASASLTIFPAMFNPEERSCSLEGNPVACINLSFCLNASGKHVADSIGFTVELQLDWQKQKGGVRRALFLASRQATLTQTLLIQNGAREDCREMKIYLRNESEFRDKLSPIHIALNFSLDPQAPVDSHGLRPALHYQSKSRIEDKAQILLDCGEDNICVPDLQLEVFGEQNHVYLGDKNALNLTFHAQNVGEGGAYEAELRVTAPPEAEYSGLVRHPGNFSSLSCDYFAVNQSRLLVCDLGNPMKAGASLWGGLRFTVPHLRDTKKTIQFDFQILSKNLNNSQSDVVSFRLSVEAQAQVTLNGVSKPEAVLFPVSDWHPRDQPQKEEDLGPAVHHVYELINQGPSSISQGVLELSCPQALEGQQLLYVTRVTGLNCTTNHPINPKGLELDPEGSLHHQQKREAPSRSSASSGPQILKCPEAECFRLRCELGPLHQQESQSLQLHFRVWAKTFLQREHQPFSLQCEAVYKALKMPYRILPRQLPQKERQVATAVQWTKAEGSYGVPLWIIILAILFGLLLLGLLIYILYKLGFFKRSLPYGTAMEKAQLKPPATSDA
Chain of UniProt P08648 (P05556 21-798, chain 2 of 2, further chain): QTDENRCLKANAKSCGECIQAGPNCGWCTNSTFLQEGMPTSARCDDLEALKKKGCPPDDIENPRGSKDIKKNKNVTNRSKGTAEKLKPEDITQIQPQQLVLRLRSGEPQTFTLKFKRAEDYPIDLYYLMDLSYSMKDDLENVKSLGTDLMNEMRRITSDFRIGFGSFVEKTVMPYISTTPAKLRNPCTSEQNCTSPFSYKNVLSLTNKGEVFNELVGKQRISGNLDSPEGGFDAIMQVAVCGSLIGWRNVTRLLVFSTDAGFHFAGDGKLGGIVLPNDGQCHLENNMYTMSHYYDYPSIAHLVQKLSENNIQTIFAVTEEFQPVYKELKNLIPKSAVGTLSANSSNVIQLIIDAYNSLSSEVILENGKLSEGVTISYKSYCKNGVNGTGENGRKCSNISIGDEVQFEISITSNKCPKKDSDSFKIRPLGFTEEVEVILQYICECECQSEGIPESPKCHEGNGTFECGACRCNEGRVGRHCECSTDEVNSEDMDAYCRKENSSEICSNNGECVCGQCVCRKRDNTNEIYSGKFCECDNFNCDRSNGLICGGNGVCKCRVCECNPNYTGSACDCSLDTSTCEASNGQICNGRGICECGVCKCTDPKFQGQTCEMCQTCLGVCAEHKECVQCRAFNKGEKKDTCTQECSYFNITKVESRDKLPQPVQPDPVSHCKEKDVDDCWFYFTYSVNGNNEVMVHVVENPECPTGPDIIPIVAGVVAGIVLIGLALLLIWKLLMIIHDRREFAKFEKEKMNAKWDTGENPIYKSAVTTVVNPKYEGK

A word on the Kd: it is the equilibrium constant for the complex coming apart. Regarding CagA (from UniProt P55980), the Kd is 0.15 nM.
